In publication PMC6954417, “DSS1 interacts with and stimulates RAD52 to promote the repair of DSBs”:

Experiments:
[1] = molecular target: RAD52 (untagged, pET11a);DSS1 (Homo sapiens;Homo sapiens, UniProt P43351;P60896 1-418;1-70, |); test: stopped-flow fluorescence; 1:1 complex; sign change at 0.1-0.25 uM; ssDNA EMSA: 30 mM Tris-acetate pH 7.5, 1 mM DTT, RT, 0.1% glutaraldehyde; FRET: same buffer + 0.1 mg/ml BSA, 25 C; dsDNA EMSA: 30 mM KPi pH 7.4, 1 mM DTT, 0.01; settings: protein: recombinant;recombinant; tags: none;GST removed by thrombin; label: Cy3; single strand
Chain of RAD52 (untagged, pET11a);DSS1 (P60896 whole entry, one chain of several): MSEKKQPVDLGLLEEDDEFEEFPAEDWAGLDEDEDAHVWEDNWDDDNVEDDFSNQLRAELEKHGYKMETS

RAD52 (untagged, pET11a) = molecular target: T1, RAD52 (untagged, pET11a) (Homo sapiens, UniProt P43351 1-418); test: stopped-flow fluorescence; 0.05-2.0 uM RAD52; smaller amplitude, lower affinity than with DSS1; sign change at ~0.5 uM; ssDNA EMSA: 30 mM Tris-acetate pH 7.5, 1 mM DTT, RT, 0.1% glutaraldehyde; FRET: same buffer + 0.1 mg/ml BSA, 25 C; dsDNA EMSA: 30 mM KPi pH 7.4, 1 mM DTT, 0.01; settings: protein: recombinant; tags: none; label: Cy3; single strand
T1 sequence: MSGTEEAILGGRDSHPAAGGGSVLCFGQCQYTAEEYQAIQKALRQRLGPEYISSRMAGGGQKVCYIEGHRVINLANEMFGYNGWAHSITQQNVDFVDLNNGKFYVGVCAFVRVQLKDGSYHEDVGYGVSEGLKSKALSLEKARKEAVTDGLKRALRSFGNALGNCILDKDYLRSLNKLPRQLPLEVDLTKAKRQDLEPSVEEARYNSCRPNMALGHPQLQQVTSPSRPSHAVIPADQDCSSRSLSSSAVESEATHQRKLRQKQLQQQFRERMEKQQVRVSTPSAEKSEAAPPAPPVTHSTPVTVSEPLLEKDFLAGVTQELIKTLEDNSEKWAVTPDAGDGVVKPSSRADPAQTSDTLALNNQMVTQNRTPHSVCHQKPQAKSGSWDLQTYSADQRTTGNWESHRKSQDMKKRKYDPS

TTTTTTTTTTTTTTTTTTTTTTTTTTTTTTTTT (ssDNA) [Cy3-dT33 (pR1255)]: binds [1]; binds (RAD52 (untagged, pET11a)).
